This is an account of results in the Human Domainome abundance scans (Beltran et al. 2025).

± gives the uncertainty stated by the source.

Sequences and labels used below:
B1: WW domain-containing transcription regulator protein 1, residues 116 to 162; numbered along this chain, Q9GZV5 (parent)
chain: QSYDVTDELPLPPGWEMTFTATGQRYFLNHIEKITTWQDPRKAMNQP
B2: Protein S100-G, residues 1 to 79; numbered along this chain, P02633 (parent)
chain: MSAKKSPEELKGIFEKYAAKEGDPNQLSKEELKLLLQTEFPSLLKGPSTLDELFEELDKNGDGEVSFEEFQVLVKKISQ

The variants in one data set derive from B1. Briefly: abundance fitness (aPCA) (normalised: wild type 0, dead -1); higher = more abundant; growth selection in yeast, the domain comes from the species named. Particulars: Homo sapiens.
Turning to Q1R, the abundance fitness was -0.365 ± 0.065.
As for Q1I, the abundance fitness came to 0.001 ± 0.38.
Regarding Q1E, the abundance fitness is -0.182 ± 0.062.
Same read-out and setting: the figure for Q1T is -0.492 ± 0.18; for Q1V it is -0.45 ± 0.09; for Q1D it is -0.005 ± 0.069.
On to Q1M, for which the abundance fitness is 0.26 ± 0.1.
For Q1A, the abundance fitness was -0.519 ± 0.15.
As for Q1G, the abundance fitness is -0.163 ± 0.059.
On to Q1Y, for which the abundance fitness was -0.132 ± 0.13.
Regarding Q1H, the abundance fitness is -0.704 ± 0.32.
Take S2V: the abundance fitness was -0.148 ± 0.044.
Take S2D: the abundance fitness came out at 0.057 ± 0.03.
Same read-out and setting: as for S2H, the figure is 0.149 ± 0.32; as for S2W, -0.406 ± 0.062; as for S2Y, -0.226 ± 0.07.
The same measure, in the same setting: the figure for S2F is -0.035 ± 0.055; for S2M it is -0.017 ± 0.033; for S2K it is -0.074 ± 0.065.
Same read-out and setting: the figure for S2G is -0.034 ± 0.027.
With S2Q, the abundance fitness is -0.167 ± 0.065.
As to S2P, the abundance fitness was -0.45 ± 0.066.
Consider S2N, for which the abundance fitness is 0.361 ± 0.081.
Still for that read-out and setting: as for S2T, the figure is -0.092 ± 0.05; as for S2L, -0.093 ± 0.04.
Take S2I: the abundance fitness was -0.026 ± 0.071.
On the same count and under the same terms, as for S2A, the figure is -0.255 ± 0.04.
On the same count and under the same terms, the figure for S2C is -0.192 ± 0.043.
Still for that read-out and setting: the figure for S2E is -0.274 ± 0.055; for Y3P it is 0.087 ± 0.28.
For the variant Y3L, the abundance fitness is -0.323 ± 0.48.
As to Y3H, the abundance fitness worked out at 0.013 ± 0.14.
For Y3M, the abundance fitness was 0.182 ± 0.11.
With Y3C, the abundance fitness worked out at 0.262 ± 0.1.
The same measure, in the same setting: as for Y3I, the figure is 0.274 ± 0.13; as for Y3Q, -0.2 ± 0.031.
On the same count and under the same terms, the figure for Y3V is -0.472 ± 0.48; for D4A it is -0.083 ± 0.035; for D4C it is 0.049 ± 0.045.

The variants in the next data set derive from B2. The description is as above. Conditions: Bos taurus.
As for MSAKKSPEELKGIFEKYAAKEGDPNQLSKEELKLALQTEFPSLLKGPSTLDELFEELDKNGDGEVSFEEFQVLVKKISQ [L35A], the abundance fitness is 0.02 ± 0.08.
Turning to MSAKKSPEELKGIFEKYAAKEGDPNQLSKEELKLLLQTEFPSLLVGPSTLDELFEELDKNGDGEVSFEEFQVLVKKISQ [K45V], the abundance fitness is -0.029 ± 0.076.
For MSAKKSPEELKGIFEKYAAKEGDPNQLSKEELKLLLQTEFPSLLKGPSTLDELFEELDKNGPGEVSFEEFQVLVKKISQ [D62P], the abundance fitness is -0.027 ± 0.074.
The same measure, in the same setting: as for MSAKKSPEELKGIFEKYAAKEGDPNQLSKEELKLLDQTEFPSLLKGPSTLDELFEELDKNGDGEVSFEEFQVLVKKISQ [L36D], the figure is -2.17 ± 0.14; as for MSAKKSPEELKGIFEKYAAKEGDPNQLSKEELKLLHQTEFPSLLKGPSTLDELFEELDKNGDGEVSFEEFQVLVKKISQ [L36H], -1.08 ± 0.083.
Turning to MSAKKSPEELKGIFEKYHAKEGDPNQLSKEELKLLLQTEFPSLLKGPSTLDELFEELDKNGDGEVSFEEFQVLVKKISQ [A18H], the abundance fitness was -0.195 ± 0.08.
For the variant MSAKKSPEELKGIFEKYTAKEGDPNQLSKEELKLLLQTEFPSLLKGPSTLDELFEELDKNGDGEVSFEEFQVLVKKISQ [A18T], the abundance fitness was -0.15 ± 0.07.
With MSAKKSPEELKGIFEKYAAKEGDPNQLSKEELKLLLQTEFPCLLKGPSTLDELFEELDKNGDGEVSFEEFQVLVKKISQ [S42C], the abundance fitness was -0.074 ± 0.086.
In the case of MSAKKSPEELKGIFEKYAAKEGDPNQLSKEELKLLLQTEFPTLLKGPSTLDELFEELDKNGDGEVSFEEFQVLVKKISQ [S42T], the abundance fitness came out at 0.084 ± 0.073.
Still for that read-out and setting: the figure for MSAKKSPEELKGIFEKYAAKEGDPNQLSKEELKLLLQTEFPSYLKGPSTLDELFEELDKNGDGEVSFEEFQVLVKKISQ [L43Y] is 0.015 ± 0.078; for MSAKKSPEELKGIFEKYAAKEGDPNKLSKEELKLLLQTEFPSLLKGPSTLDELFEELDKNGDGEVSFEEFQVLVKKISQ [Q26K] it is -0.05 ± 0.079.
